Here are results for one substance from article PMC8155481.

Experiment [1] concerns the target FBG-like domain of human Tenascin-W with Arg1220 changed to alanine (FBG-W^RKKA) (human). Nature of the experiment: SPR; Biacore T200; FBG-like domains immobilised on CM5 by amine coupling; mature TGF-β1 injected in single-cycle mode; PBS with 0.05% P-20, 25°C, 30 µl/min; heterogeneous ligand model; apparent constants.
For experiment [2], the target named is FBG-like domain of human Tenascin-X (human). The description is as above.

For the substance “recombinant human mature TGF-β1 (ligand)”, in experiment [1], the KD1 (heterogeneous ligand model, site 1) came to 1.89 µM; the KD2 (heterogeneous ligand model, site 2) was 6.48 µM; the ka1 (heterogeneous ligand model, site 1) was 1040 M⁻¹ s⁻¹; the ka2 (heterogeneous ligand model, site 2) was 14300 M⁻¹ s⁻¹. Besides, in experiment [1], the kd1 (heterogeneous ligand model, site 1) was 0.00196 s⁻¹ and the kd2 (heterogeneous ligand model, site 2) was 0.0926 s⁻¹. For the same substance, in experiment [2], the ka1 (heterogeneous ligand model, site 1) was found to be 8080 M⁻¹ s⁻¹; the ka2 (heterogeneous ligand model, site 2) turned out to be 207000 M⁻¹ s⁻¹; the kd1 (heterogeneous ligand model, site 1) is 0.00276 s⁻¹; the kd2 (heterogeneous ligand model, site 2) was determined as 0.0845 s⁻¹.
